This note sets out measurements from publication PMC12551957, “Human monoclonal antibodies to HPV16 show evidence for common developmental pathways and public epitopes” (PLOS Pathogens, 2025).

Assay [1] addresses soluble HPV16 L1 capsomer (human papillomavirus type 16 (HPV16)). Nature of the assay: cryo-EM structure.
The target in assay [2] is HPV16 L1 (as in the HPV16L1 binding assays and on pseudovirus psV16) (Human papillomavirus type 16; L1 of …, UniProt J3SRV0). Nature of the assay: cell-based or functional assay.
Sequence of HPV16 L1 (as in the HPV16L1 binding assays and on pseudovirus psV16) (P03101 whole entry): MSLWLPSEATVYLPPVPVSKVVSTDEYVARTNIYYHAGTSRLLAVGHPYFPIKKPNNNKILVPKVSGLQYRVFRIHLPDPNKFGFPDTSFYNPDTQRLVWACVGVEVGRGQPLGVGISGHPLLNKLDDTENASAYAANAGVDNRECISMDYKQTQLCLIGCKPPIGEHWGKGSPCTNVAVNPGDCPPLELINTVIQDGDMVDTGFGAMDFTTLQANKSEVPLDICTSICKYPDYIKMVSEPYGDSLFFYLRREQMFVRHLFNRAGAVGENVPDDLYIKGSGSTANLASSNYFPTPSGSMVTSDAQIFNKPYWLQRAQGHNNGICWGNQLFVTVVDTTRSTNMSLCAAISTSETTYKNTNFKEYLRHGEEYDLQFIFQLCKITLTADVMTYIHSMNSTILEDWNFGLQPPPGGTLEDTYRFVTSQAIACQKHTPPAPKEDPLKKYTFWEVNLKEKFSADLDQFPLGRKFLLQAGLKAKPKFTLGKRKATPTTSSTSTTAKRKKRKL

In assay [1], soluble HPV16 L1 capsomer (complex) had a stoichiometry N of 5.

B1: D24.1M01 with the germline CDRL2 (YGN) (antibody, V domains shown)
VH: QVTLRESGPALVKPTQTLTLTCTISGLSLTTSGVCVSWIRQPPGKALEWLALIDWDDDKYYSTSLRTRLTISKDISKNQVVLTMTNMDPVDTATFFCARTRCTSNWGYYFDSWGRGTRVTVSS
VL: QSVLTQPPSVSGAPGQRVTISCTGSASNIGAGYDVHWYQQVPGAAPKLLIYGNSNRPSGVPDRISGSKSGTSASLAISGLQAEDEADYYCQSYDDSLRGWVFGGGTKLTVL
With B1, the “psV16 neutralization, fold increase of IC50 against the mature antibody” value in assay [2] turned out to be 5.3 fold.
